Experimental findings from paper PMC4146615 are described below.

pKd: −log10 of the molar value.

Usually pKd stands for the negative decadic logarithm of the Kd, by convention in mol/L.

Data set [1] concerns the target T1, SoxR (Streptomyces coelicolor) (UniProt Q9S255).
T1 sequence: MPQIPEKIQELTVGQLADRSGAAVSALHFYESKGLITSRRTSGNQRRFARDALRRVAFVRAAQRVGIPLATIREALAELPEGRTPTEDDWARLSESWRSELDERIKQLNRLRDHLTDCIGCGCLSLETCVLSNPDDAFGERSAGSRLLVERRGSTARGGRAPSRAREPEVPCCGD
Put plainly: EMSA. Particulars: EMSA: 10 mM Tris-HCl pH 8, 75 mM KCl, 0.1 mM DTT, 10% glycerol, 2 mM MgCl2, 0.1 ug poly(dI)-poly(dC), 2 mM dAMP, 30 uL, 6 fmol probe, SoxR 0-20 nM, 15 min ….

Data set [2] concerns the target T1, SoxR (Streptomyces coelicolor). Kind of data set: competition. Particulars: EMSA: 10 mM Tris-HCl pH 8, 75 mM KCl, 0.1 mM DTT, 10% glycerol, 2 mM MgCl2, 0.1 ug poly(dI)-poly(dC), 2 mM dAMP, 30 uL, 6 fmol probe, SoxR 0-20 nM, 15 min …. In general terms: In EMSA bound probe runs differently from free probe, usually more slowly.

With “GACAGTCGTAGGCGGTTCCGCCCCTCCATACGTCACCCCTTGCCGACCGGCCCGACTCCACCGCGGACGACGGACGAGCCTTGACCTCGACCGGACTTGAGGTTGGAGGCTGGGCGGGATGTCGCCTCCAGTGAAGGGTGCTGCTCATGCATGCGATCCACGTGGCCTCGTTCGGTGCTCCGGACGTGCTGAGCCTGGTC (double strand) [SCO0320ext promoter probe]”, the K_half entry in data set [1] is recorded as “binds”. In data set [2], the binding result is on record as “binds”. Consider SCO0321 upstream probe, for which, in data set [1], the pKd was under 7.70. Still for that read-out and setting: under SCO1177 upstream probe stands under 7.70; under ecaD (SCO4266) promoter probe, 8.30.
